According to paper PMC11272584 (Nature Metabolism, 2024):
Changes are numbered by the printed parent chain. Numbers in names are those of the source.

B1: S382T (protein)
chain: RAETGSKGQTAGELYQRWERYRRECQETLAAAEPPSGLACNGSFDMYVCWDYAAPNATARASCPWYLPWHHHVAAGFVLRQCGSDGQWGLWRDHTQCENPEKNEAFLDQRLILERLQVMYTVGYSLSLATLLLALLILSLFRRLHCTRNYIHINLFTSFMLRAAAILSRDRLLPRPGPYLGDQALALWNQALAACRTAQIVTQYCVGANYTWLLVEGVYLHSLLVLVGGSEEGHFRYYLLLGWGAPALFVIPWVIVRYLYENTQCWERNEVKAIWWIIRTPILMTILINFLIFIRILGILLSKLRTRQMRCRDYRLRLARSTLTLVPLLGVHEVVFAPVTEEQARGALRFAKLGFEIFLSTFQGFLVSVLYCFINKEVQSEIRRGWHHCRLRRSLGEEQRQLPERAFRALPSGSGPGEVPTSRGLSSGTLPGPGNEASRELESYC
B2: S382Y (protein)
chain: B1 chain with T361Y
B3: K397N (protein)
chain: B1 chain with T361S, K376N
B4: V399M (protein)
chain: B1 chain with T361S, V378M
B5: S415I (protein)
chain: B1 chain with T361S, S394I
B6: E418K (protein)
chain: B1 chain with T361S, E397K
B7: G449A (protein)
chain: B1 chain with T361S, G428A

biological target: T1, GIPR S382T (Homo sapiens, UniProt P48546, S382T); test: cAMP accumulation; type: cell-based; settings: not given
T1 construct: host or cells: HEK293
T1 sequence (P48546 22-466 S382T): B1 chain

**Q.** How did the “Efficacy at 100pmol (cAMP)” value turn out when B1 was run?
**A.** Its value is 0.1068.

biological target: T2, GIPR S382Y (Homo sapiens, UniProt P48546, S382Y); test: cAMP accumulation; type: cell-based; settings: not given
T2 construct: host or cells: HEK293
T2 sequence (P48546 22-466 S382Y): B1 chain with T361Y

**Q.** B2 was tested. Which “Efficacy at 100pmol (cAMP)” value did it give?
**A.** The value was 0.008271.

biological target: T3, GIPR K397N (Homo sapiens, UniProt P48546, K397N); test: cAMP accumulation; type: cell-based; settings: not given
T3 construct: host or cells: HEK293
T3 sequence (P48546 22-466 K397N): B1 chain with T361S, K376N

**Q.** B3 was tested. Which “Efficacy at 100pmol (cAMP)” value did it give?
**A.** Its value is 0.5221.

biological target: T4, GIPR V399M (Homo sapiens, UniProt P48546, V399M); test: cAMP accumulation; type: cell-based; settings: not given
T4 construct: host or cells: HEK293
T4 sequence (P48546 22-466 V399M): B1 chain with T361S, V378M

**Q.** With B4 as the molecule, how does the “Efficacy at 100pmol (cAMP)” value read?
**A.** The value was 0.2386.

biological target: T5, GIPR S415I (Homo sapiens, UniProt P48546, S415I); test: cAMP accumulation; type: cell-based; settings: not given
T5 construct: host or cells: HEK293
T5 sequence (P48546 22-466 S415I): B1 chain with T361S, S394I

**Q.** For B5, which “Efficacy at 100pmol (cAMP)” value is on record?
**A.** The value was 0.6572.

biological target: T6, GIPR E418K (Homo sapiens, UniProt P48546, E418K); test: cAMP accumulation; type: cell-based; settings: not given
T6 construct: host or cells: HEK293
T6 sequence (P48546 22-466 E418K): B1 chain with T361S, E397K

**Q.** How did the “Efficacy at 100pmol (cAMP)” value turn out when B6 was run?
**A.** Its value is 0.7942.

biological target: T7, GIPR G449A (Homo sapiens, UniProt P48546, G449A); test: cAMP accumulation; type: cell-based; settings: not given
T7 construct: host or cells: HEK293
T7 sequence (P48546 22-466 G449A): B1 chain with T361S, G428A

**Q.** B7 was tested. Which “Efficacy at 100pmol (cAMP)” value did it give?
**A.** Its value is 0.609.

tested on: GIPR variants (groups); test: cAMP accumulation; type: cell-based, human; settings: cAMP part of the in vitro group

**Q.** Which “In vitro groups (cAMP)” value does the source give for B1 here?
**A.** The value was “LoF_camp”.

**Q.** Which “In vitro groups (cAMP)” value does the source give for B5 here?
**A.** Its value is “WT-like_camp”.

**Q.** How did the “In vitro groups (cAMP)” value turn out when B4 was run?
**A.** Its value is “LoF_camp”.

**Q.** For B3, which “In vitro groups (cAMP)” value is on record?
**A.** The value was “WT-like_camp”.

**Q.** How did the “In vitro groups (cAMP)” value turn out when B7 was run?
**A.** The value was “WT-like_camp”.

**Q.** With B6 as the molecule, how does the “In vitro groups (cAMP)” value read?
**A.** The value was “WT-like_camp”.

**Q.** For B2, which “In vitro groups (cAMP)” value is on record?
**A.** The value was “LoF_camp”.

same assay, conditions: cAMP production compared with WT

**Q.** How did the percentage_camp turn out when B1 was run?
**A.** The percentage_camp was less than 50% cAMP.

**Q.** Which percentage_camp does the source give for B5 here?
**A.** The percentage_camp was greater than 50% cAMP.

**Q.** How did the percentage_camp turn out when B4 was run?
**A.** The percentage_camp was less than 50% cAMP.

**Q.** For B3, which percentage_camp is on record?
**A.** The percentage_camp was greater than 50% cAMP.

**Q.** How did the percentage_camp turn out when B7 was run?
**A.** Its percentage_camp is greater than 50% cAMP.

**Q.** B6 was tested. Which percentage_camp did it give?
**A.** The percentage_camp was greater than 50% cAMP.

**Q.** B2 was tested. Which percentage_camp did it give?
**A.** Its percentage_camp is less than 50% cAMP.

same assay, conditions: in vitro cAMP production per GIPR variant

**Q.** Which “Beta, cAMP” value does the source give for B1 here?
**A.** The value was 0.1068.

**Q.** For B5, which “Beta, cAMP” value is on record?
**A.** Its value is 0.6572.

**Q.** With B4 as the molecule, how does the “Beta, cAMP” value read?
**A.** The value was 0.2386.

**Q.** With B3 as the molecule, how does the “Beta, cAMP” value read?
**A.** Its value is 0.5221.

**Q.** For B7, which “Beta, cAMP” value is on record?
**A.** The value was 0.609.

**Q.** For B6, which “Beta, cAMP” value is on record?
**A.** The value was 0.7942.

**Q.** For B2, which “Beta, cAMP” value is on record?
**A.** Its value is 0.008271.

tested on: GIPR variants (groups); test: β-arrestin 2 recruitment (BRET); settings: arr part of the in vitro group;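 further: BRET readout of β-arrestin 2 recruitment in transiently transfected HEK293 cells expressing WT GIPR or a GIPR variant plus GPCR kinase 2, Rluc8 donor and citrine acceptor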

**Q.** For B1, which “In vitro groups (β-arrestin)” value is on record?
**A.** The value was “LoF_arr”.

**Q.** How did the “In vitro groups (β-arrestin)” value turn out when B5 was run?
**A.** Its value is “WT-like_arr”.

**Q.** B4 was tested. Which “In vitro groups (β-arrestin)” value did it give?
**A.** Its value is “LoF_arr”.

**Q.** With B3 as the molecule, how does the “In vitro groups (β-arrestin)” value read?
**A.** The value was “LoF_arr”.

**Q.** How did the “In vitro groups (β-arrestin)” value turn out when B7 was run?
**A.** Its value is “WT-like_arr”.

**Q.** How did the “In vitro groups (β-arrestin)” value turn out when B6 was run?
**A.** Its value is “WT-like_arr”.

**Q.** How did the “In vitro groups (β-arrestin)” value turn out when B2 was run?
**A.** Its value is “LoF_arr”.

same assay, conditions: in vitro β-arrestin recruitment per GIPR variant

**Q.** With B1 as the molecule, how does the “Beta, Barr” value read?
**A.** Its value is 0.05782.

**Q.** B5 was tested. Which “Beta, Barr” value did it give?
**A.** Its value is 0.9285.

**Q.** Which “Beta, Barr” value does the source give for B4 here?
**A.** The value was 0.

**Q.** B3 was tested. Which “Beta, Barr” value did it give?
**A.** Its value is 0.3822.

**Q.** For B7, which “Beta, Barr” value is on record?
**A.** Its value is 0.5256.

**Q.** B6 was tested. Which “Beta, Barr” value did it give?
**A.** The value was 0.9111.

**Q.** How did the “Beta, Barr” value turn out when B2 was run?
**A.** The value was 0.
